Reference: the DeepSol protein solubility set

Test: soluble on expression in E. coli; label from the status in PepcDB or PDB records

Row | Sequence | soluble on expression in E. coli
1 | MGSDKIHHHHHHMGIENMKICIVSFTKKGYELSCDIAYKLEKSAYEVEVFTKCSRLSDENIKNSTDENYRNTGYISQNISDWTAAQMSEKKALIFIGACGIAVRAIASSVNNKLKDSPVIVIDELGKFVIPILSGHVGGANEFAVLLAALMNATPVITTATDINNKFAVDVFAKKCRLAIVNKDGIARVSSKVLAGEVVTMSVDWEHIPAKHRSLIKAFLDKADMSADAIKTVDFPPAYGADIVVSCEKEKDTKNGSIYLKPTQFVLGIGCRRDTAFENIDRAIRQSLLKLQIDISDIDMIASIDVKKDEPGIKEFCERNRIEFVTYTADELMAVQGEFSASQFVREHVGVDNVCERAAVLACSRECDKAGELIYKKHKYDRVTVAAARYPD | not soluble
2 | MIRLTRLDGDVFFVNPDLIEAIEETPDTHIVLSNGRRYLVIEKTDAIVARIISFKSSVMKRALGGHGRKYLRRKMEGSYLPRCPLKPGHNTDLEHHHHHH | soluble
3 | MDISRRNFLKSTASFGAIASLGLPGYSLAAPSNDFRALICVYLAGGNDAINTILPLSDFHYNQYANVRGSLSVAKNTIIPIRLNAHDANNNAVPLGLHPKLSALAPLFQQGDANLVLNSGILNQPVTKQAIEQGDVPLPEQLFSHNSQTASWLRGGMDASTNLGWAGRMLDVLTSDAQITPLYSVHGDTLWLKAMEHRQTVLKKDKAVQLTAVGNPLYEEVYQKLLSQSADNPFSGHFNLMVDESMMMSNILAEQLKLIDDAPLFSSSTLGKQMQTVYKLIASQSALSQQRQVFFVKHTGYDLHDSQLARHPLLLEDLATNLNAMYRAVDKLGMSKNVTTFTMSDFGRRMTNNGNGTDHGWGGHQLLIGGAVNGSAPIGTWPELTLGGQDDYSKGRLIPAIAADQVGSTLAQWMGVSDNAALEYVFPNIRNFTTSNLGFMA | not soluble
4 | MGSDKIHHHHHHMDNSEEKKLEALGAFEISRKMLALAQKNEKSNIFLNAGRGNPNWIQTLARLAFVRLVQFGVTESKLTINNGIMAGYINTDGIRERLFAFLDPDKNDEDKFLIDAVNYCHTELGLNRDKVVAEWVNGAVANNYPVPDRCLVNTEKIINYFLQELSYKDANLAEQTDLFPTEGGTAAIVYAFHSLAENHLLKKGDKIAINEPIFTPYLRIPELKDYELVEVDLHSYEKNDWEIEPNEIEKLKDPSIKALIVVNPTNPTSKEFDTNALNAIKQAVEKNPKLMIISDEVYGAFVPNFKSIYSVVPYNTMLVYSYSKLFGCTGWRLGVIALNEKNVFDDNIAHLDKVELRQLHKRYSSVVLDPDKMKFIDRLCADSRSIGLYHTAGLSTPQQIMEALFSMTHLLTSTNGGSDDPYIDIARKLVSERYDQLHDAMQAPKDETDTNTHYYSLIDIYRLAEKIYGKEFRDYLTNNFEQVDFLLKLAEKNGVVLVDGVGFGAKPGELRVSQANLPTEDYALIGKQVLELLKEYYEEFKQNN | not soluble
5 | MSKILVIAEHRRNDLRPVSLELIGAANGLKKSGEDKVVVAVIGSQADAFVPALSVNGVDELVVVKGSSIDFDPDVFEASVSALIAAHNPSVVLLPHSVDSLGYASSLASKTGYGFATDVYIVEYQGDELVATRGGYNQKVNVEVDFPGKSTVVLTIRPSVFKPLEGAGSPVVSNVDAPSVQSRSQNKDYVEVGGGNDIDITTVDFIMSIGRGIGEETNVEQFRELADEAGATLCCSAPIADAGWLPKSRQVGQSGKVVGSCKLYVAMGISGSIQHMAGMKHVPTIIAVNTDPGASIFTIAKYGIVADIFDIEEELKAQLAA | soluble
6 | MGSDKIHHHHHHMVMEVIKVKYKAFDVGAVSYNTDTQMGSFEYFPSFIKTGIELSPIKMPLAKNIYSFPQLDQNTFKGLPGLIADSLPDDFGNAVMNAWIASQGKSTSDITPLQRLQYTGMRGMGALTYSPATKRKNLNASQPIHIESLVSIAQDVLDKRQQFSVDLENNGQEDKEAMMSLMSVGMSAGGARPKAVLAFNNDLTQVRSGQTDAPEGFTHYLMKFDGVSEHNKNQETFGDPMGYGAMEYTYHILAKECGIDMMPCHLLNEGKRRHFITERFDRNGNDKIHVQTLNGLEHVSYKQIGSYSYAELFNTARKLKLSPDDAMQLFKRMVFNVISRNHDDHAKNFGFMLDKDHKWQLAPAYDLAYSYKPDSHWVSKHWMTLNGKQDNFTRDDFYSFEKLSPIFSKRKIDDVLNQTIEAVSQWDKYAAEHAVPNSLIKEISQNLRLFL | not soluble
7 | MKLKKTDVFNLDGTVKQTAFIHDQKTGKKNTLYLKPVQQDLMLYHAWLIQQNMNSEWLFPSTSRPDRPITEKQFYKIMARVGDLLGINYLGTHTMRKTGAYRVYTQSNYNIGLVMHLLNHSSEAMTLTYLGLDQASRENMLDQIDFG | not soluble
8 | MGSDKIHHHHHHMTKLYEPFYRLTIELTECEREIIGSRPFKRLAHLHHYGAAALRTPVTHSRYEHTIGVWSLTAHFFPSDQLLRLVALLHDIGHLPFSHAVEQPLGFNHHLLTERLIESQEVAKILKKHGFIPQDVIRRLNENTPVSNQEKLLSLDHLDSFLRDTTLAGTCSLIPHESLGRLSVRGNGIETDEETALLLASCIVKDHELFLDPFNLAMDALLAEAITLYMADKPLVSMENIPHMTDDEVLTLLRGSWNKKVHAHLKLLFSQQPTLVQTDDESSAKLTVTVRKVYEDRPLIRHGTAKGREMVEKKLAELQELKGRFSFVY | not soluble
9 | MSGIWGNNLKVSIFGESHGNAIGINIDGLPSGIELDLDKIDKEMKRRAPGKNSISTSRNESDIPEILSGYFNGRTTGTPLCAIIRNSDTRSKDYGELKNLMRPGHADFTGNVRYSGFNDYRGGGHFSGRITAPLVFCGAICKQILSQKGIEIGAHIKKIKNIEDMSFDYVNISKQQLSNLQTLELPLLDLSKEEAMKNTIIDAKNQGDSVGGIIECAVVGINVGLGNPFFDSVESTLSHLLFSVPAVKGVEFGLGFELADMYGSQSNDEMYYEGNQVKSKTNNNGGIIGGITTGMPIIFKVAIKPTPSISRQQNTVNIKDKKDDILYIKGRHDPCIVQRAIPVIEAVTAIGIFDLMKGR | not soluble
10 | SYVQDYRSPFIASVSDQHGVVYITENKNKTVVIPCLGSISNLNVSLCARYPEKRFVPDGNRISWDSKKGFTIPSYMISYAGMVFCEAKINDESYQSIMYIVVVVGYRIYDVVLSPSHGIELSVGEKLVLNCTARTELNVGIDFNWEYPSSKHQHKKLVNRDLKTQSGSEMKKFLSTLTIDGVTRSDQGLYTCAASSGLMTKKNSTFVRVHEKPFVAFGSG | soluble
11 | MGSDKIHHHHHHMLPGIVVKPLKTFADERGFFTEIMRRDWDVFEDEILQANMSVTYPGIVRAWHKHERGQVDYFVCIGGAIKICAYDDETQELAEIVSTGKNLQVVRVPGHYWHGFKAIGVEPAVLVYFVSRLYDYENPDEVRRPWNDSTIVPAKINGREDDPRCGKPWDWFYPPHK | not soluble
12 | MSLFCLPLEMRNHWHFFSLFTNLPRKSKWHRASEFFFPLLMSEIEDFR | soluble
13 | GMNPENWLLLRRVVRFGDTDAAGVMHFHQLFRWCHESWEESLESYGLNPADIFPGSRKSEVTPEVALPIIHCQADFRRPIHTGDALAMELRPERLNPNSFQVHFEFRCEEQIAAHALIRHLAINAQTRHRCALPEGIDRWLEASGVGKIGSI | soluble
14 | MSLYLMPKQDEIALLKQEEETVKATLRIKANKVAVLPQIQAQLDELKERYDFLLRQLPVQKELASMLASVNQLGLDSSLTFTRIDWGERESQEFLYRLPLNIELTGSYHDIGDFSQAIAKLPRIINFDDVDWQRVSQESSTLHFRVRAYTYQFKQEVDDEKEGHHHHHH | not soluble
15 | MSLSKPLFIFEMANNHMGNVEHGVALIRAIRESCQGFDFDFGFKLQYRNLDTFIHSSFKGRDDVKYVKRFEETRLQPEQMQKLVAEMKANGFKAICTPFDEESVDLIEAHGIEIIKIASCSFTDWPLLERIARSDKPVVASTAGARREDIDKVVSFMLHRGKDLTIMHCVAEYPTPDDHLHLARIKTLRQQYAGVRIGYSTHEDPDLMEPIMLAVAQGATVFEKHVGLPTDQYGINNYSANPEQVRRWLAAAARALAMLGDGEDDAVSETEQASLRSLRRGVFATRPVAAGEALTADNVSFAFPPVEGQLTANEWSKYVRYTAKTPIAADAPVMAADLEPVNEGHHHHHH | soluble
16 | MGSDKIHHHHHHMDFELDDGWDVYPIYGNTNKAFMGKKNHQRLFLKRNASPFLAALSMEEITPRLIWTKRISSGDTLTAQEWLNGQTLTKQQMRLPEVAHLLARVHNSELLHRMLRKVGGQSVRPQDFIQQYLQDLPDDLRHHPLMARVLDELRGTAPTLPATDYRVCHGDLNHKNWLLSDRQQLYLVDWDSARFADPASDISMLLCEYVPLSDWQQWLSEYGETMTTALRTRVVWYAKINLLLNIKDNYYRNQYHQMNHEIIFLEELSQYEV | not soluble
17 | MERARVIAEAAAHISRELGAAAIMVSGDLNFEGIETGEIPVYYISMRPKSIIDHLVATSKDGKSPVKELGDQLTREASGNVEYVQHAAAIEYALEGPKNGIVVGVIETRGSSSIIVHNLDDNPLIKAMKECEERVNPEVMNAVLKIAFDIALTGREGKKIGAAFIVGDSEEVLKRSHQIILNPYEGHEEAHRNILDRRNWESIKEFALLDGVFVIDETGIVRAAGRYLDVDGKNIDIEKGLGGRHVSAAAISRDTVAISVTVSESGGVLRVYKDAKETICMESLQPASRYV | soluble
18 | MSLGSMGPAQFVGRQTLATTPMGDVEIGLQERNGQLEVDIIQARGLTAKPGSKTLPAAYIKAYLLENGICIAKKKTKVARKSLDPLYNQVLLFPESPQGKVLQVIVWGNYGRMERKQFMGVARVLLEELDLTTLAVGWYKLFPTSSMVDPATGPLLRQASQLSLESTVGPCGERSEGHHHHHH | soluble
19 | GPGSMEAAPAAAAPRLPQAPKRPREESDAPLQESSNGSVPANFSNEASVTTPVAGTELVVDVDQPETNAQASAVDAPRSRSRGLAAVGPGSTSPVAASRSGTDGANNCQPAAAVTTLSSSSASADARRFKQPTLAAYGLVSDTMTLKKEISDRDSHIEELNREVEGLRAEAGRRNDQINFMDGQCRQYQRKLEHFQSVMRQEMLSAAQKDRSEARRVLYQKHFELGQTATWHSNGQTVWMEGDRVRTLFLKLADLTQKREEVEALKKAAQSNVKHLARQEREREDSGAGPDLQDALMAAQMEYQLRASEHAALTNTIADVKLKQTEIEHEKKAFVKEMRRVNDEDTSEFLAIPTIGEGDRYVLMHLLGKGGFSEVWKAFDLVEGRYVACKIHHIQREWPAQTRTHYLRHAQRELDIMRALDHPHLTHLYDVFPRGDNMFISVMEYSNGMDLDTYLKRYRIFKEADARLIFLQVVDVLRYLASLDSPIIHYDLKPANILLHRDDPTILDIKITDFGLSKIIGATREGPSDNPSIELTSQGTGTYWYLPPECFETSSTPRISNKVDIWSAGVIFYQMLFGKRPFAEGESQRRIWQEKLIIQSARTLHFPDTPKVSEEAKDIIRGCLAFNERERCDVFQLSQDPYLFRTSRRSAHKAKSAAPAGVGSSNSPLMPPVTDATPAS | soluble
